The values below come from patent publication US20220041746A1 (Sanofi, published 2022).

Values joined by “and” are separate entries in the source; they are usually repeats but may differ in a detail not shown here. Equal values may be shown once.

One may read the EC50 as the concentration giving half of the maximal effect. For orientation: EC50 (read off the curve) means the concentration that produces a half-maximal response. The koff is a measure of how fast the partners let go of each other.

The target in experiment [1] is human CD38 (Cambridge Biologics LLC Cat #03-01-0369) (human, UniProt P28907 43-300). As to the kind of experiment: ELISA on coated hCD38-His. As for the experimental part:
The binding properties of the purified antibodies were analyzed either using ELISA or SPR methods. For ELISA, corresponding antigens for each binding site in the trispecific binding protein were used to coat a 96-well Immuno Plate (Nunc 439454, Thermo Fisher Scientific) overnight at 4° C. using 2 μg/ml each antigen m PBS(pH7.4). The coated plate was blocked using 5% skim milk 12% BSA in PBS for one hour at RT, followed by washing with PBS+[…] three times (Aqua Max 400, Molecular Devices). Serial dilution of antibodies (trispecific and control Abs) were prepared and added onto the ELISA plates (100 μl/well in duplicate), incubated at RT for one hour, followed by washing 5 times with PBS+0.25% Tween 20.
The reaction was terminated by adding 50 μl 1M H₂SO₄, and OD₄₅₀ was measured using SpectraMax M5 (Molecular Devices) and analyzed using SoltMax Pro6.3 software (Molecular Devices). The final data was transferred to GraphPad Prism software (GraphPad Software, CA. USA), and plotted as shown. EC50 was calculated using the same software.
Background: ELISA stands for enzyme-linked immunosorbent assay.

Experiment [2] concerns the target T1, human CD38 expressed on the cell surface (human, UniProt P28907 1-300).
T1 construct: whole, on cells; also called hCD38-expressing cells; huCD38
Nature of the experiment: flow cytometry on 300.19 huCD38 cells (PréB hCD38). As for the experimental part:
(§1) The recombinant cell line was described by J. Deckket et al. 2014 Clin. Cancer Res 20:4574-4583. […] Antibody binding was evaluated after centrifugation and resuspension of cells by adding 200 μl/well PBS 1% BSA and read using Guava® easyCyte™ 8HT Flow Cytometry System. Apparent KD and EC50 values were estimated using BIOST®T-BINDING and BIOST®T-SPEED software, respectively.
Background: A flow cytometer gives signals particle by particle.

Experiment [3] deals with T2, cynomolgus monkey CD38 expressed on the cell surface (cynomolgus monkey, UniProt Q5VAN0 1-301).
T2 construct: whole, on cells; also called cCD38-expressing cells
Nature of the experiment: flow cytometry on 300.19 cynoCD38 cells (PréB cCD38). As for the experimental part: as §1

In experiment [4] the target is T1, human CD38 expressed on the cell surface. As to the kind of experiment: flow cytometry, 'Apparent KD value against rec. cells by FACS (nM)'; single value of the mid/low row, equal to the EC50 of the CD3mid protein in FIG. 6B. As for the experimental part: as §1
The target in experiment [5] is T3, recombinant human CD38 (SPR of Example 4) (human, UniProt P28907 45-300, limits assumed). As to the kind of experiment: SPR; KD rounded to an integer; first value of the pair, taken for CD3mid. In general terms: Surface plasmon resonance follows binding to a sensor surface in real time, without labels.
Experiment [6] addresses T3, recombinant human CD38 (SPR of Example …). As to the kind of experiment: SPR (column 'KD value against rec. protein by SPR (nM)'); first value of the pair, taken for CD3mid.
In experiment [7] the target is human CD28 (SPR of Example 4) (human, UniProt P10747 19-152, limits assumed). Nature of the experiment: SPR, mono-, bi- and trispecific formats (FIG. 5).
Experiment [8] has as its target T1, human CD38 expressed on the cell surface. As to the kind of experiment: flow cytometry (column FACS EC50 nM, hu). As for the experimental part:
(§2) The recombinant cell line was described by J. Deckket et al. 2014 Clin Cancer Res 20:4574-4583. […] Antibody binding was evaluated after centrifugation and resuspension of cells by adding 200 μL/well PBS 1% BSA and read using Guava® easvCyte™ 8HT Flow Cytometry System. Apparent KD and EC50 values were estimated using BIOST@T-BINDING and BIOST@T-SPEED software, respectively.

For experiment [9], the target named is T4, cCD38-his (SEQ ID NO: 4) (cynomolgus monkey, UniProt Q5VAN0 46-301).
T4 construct: His-tagged soluble protein; also called cyno CD38-histag; cynoCD38::Histag
As to the kind of experiment: ELISA (column ELISA EC50 nM, cyno).

Experiment [10] has as its target T2, cynomolgus monkey CD38 expressed on the …. As to the kind of experiment: flow cytometry (column FACS EC50 nM, cyno). As for the experimental part: as §2
For experiment [11], the target named is T5, hCD38-his (SEQ ID NO: 2) (human, UniProt P28907 45-300).
T5 construct: His-tagged soluble protein derived from isoform A; also called human CD38-histag; hCD38::Histag
As to the kind of experiment: SPR, mAb captured via anti-human Fc, soluble CD38-his injected. As for the experimental part:
(§3) The binding properties of the anti-huCD38 mabs were evaluated using a BIAcore 2000 (BIAcore Inc., Uppsala, Ni). […] The surface was regenerated between injections using 30 μL of 50 mM NaOH-1 M NaCl. Individual sensorgrams wore analyzed using BIAsimulation software.

Experiment [12] concerns the target T4, cCD38-his (SEQ ID NO: 4). The description is as above. As for the experimental part: as §3
For experiment [13], the target named is T5, hCD38-his (SEQ ID NO: 2). Nature of the experiment: ELISA (column ELISA EC50 nM, hu).
Experiment [14] deals with T1, human CD38 expressed on the cell surface. As to the kind of experiment: flow cytometry on preB::300.19 cells, apparent KD. As for the experimental part: as §2
Experiment [15] has as its target T2, cynomolgus monkey CD38 expressed on the …. Nature of the experiment: flow cytometry on preB::300.19 cells, apparent KD. As for the experimental part: as §2

B1: mAb2xCD28supxCD3mid IgG1 NNSA (other)
heavy 1: QVQLVQSGAEVVKPGASVKVSCKASGYTFTSYYIHWVRQAPGQGLEWIGSIYPGNVNTNYAQKFQGRATLTVDTSISTAYMELSRLRSDDTAVYYCTRSHYGLDWNFDVWGKGTTVTVSSSQVQLVESGGGVVQPGRSLRLSCAASGFTFTKAWMHWVRQAPGKQLEWVAQIKDKSNSYATYYADSVKGRFTISRDDSKNTLYLQMNSLRAEDTAVYYCRGVYYALSPFDYWGQGTLVTVSSRTASTKGPSVFPLAPSSKSTSGGTAALGCLVKDYFPEPVTVSWNSGALTSGVHTFPAVLQSSGLYSLSSVVTVPSSSLGTQTYICNVNHKPSNTKVDKKVEPKSCDKTHTCPPCPAPELLGGPSVFLFPPKPKDTLMISRTPEVTCVVVDVSHEDPEVKFNWYVDGVEVHNAKTKPREEQYNNASRVVSVLTVLHQDWLNGKEYKCKVSNKALPAPIEKTISKAKGQPREPQVCTLPPSRDELTKNQVSLSCAVKGFYPSDIAVEWESNGQPENNYKTTPPVLDSDGSFFLVSKLTVDKSRWQQGNVFSCSVMHEALHNHYTQKSLSLSPG
light 1: DIVMTQTPLSLSVTPGQPASISCKSSQSLVHNNANTYLSWYLQKPGQSPQSLIYKVSNRFSGVPDRFSGSGSGTDFTLKISRVEAEDVGVYYCGQGTQYPFTFGSGTKVEIKGQPKAAPDIQMTQSPSSLSASVGDRVTITCQASQNIYVWLNWYQQKPGKAPKLLIYKASNLHTGVPSRFSGSGSGTDFTLTISSLQPEDIATYYCQQGQTYPYTFGQGTKLEIKTKGPSRTVAAPSVFIFPPSDEQLKSGTASVVCLLNNFYPREAKVQWKVDNALQSGNSQESVTEQDSKDSTYSLSSTLTLSKADYEKHKVYACEVTHQGLSSPVTKSFNRGEC
heavy 2: QVQLVQSGAEVVKPGASVKVSCKASGYTFTSYAMHWVKEAPGQRLEWIGYIYPGQGGTNYNQKFQGRATLTADTSASTAYMELSSLRSEDTAVYFCARTGGLRRAYFTYWGQGTLVTVSSASTKGPSVFPLAPSSKSTSGGTAALGCLVKDYFPEPVTVSWNSGALTSGVHTFPAVLQSSGLYSLSSVVTVPSSSLGTQTYICNVNHKPSNTKVDKKVEPKSCDKTHTCPPCPAPELLGGPSVFLFPPKPKDTLMISRTPEVTCVVVDVSHEDPEVKFNWYVDGVEVHNAKTKPREEQYNNASRVVSVLTVLHQDWLNGKEYKCKVSNKALPAPIEKTISKAKGQPREPQVYTLPPCRDELTKNQVSLWCLVKGFYPSDIAVEWESNGQPENNYKTTPPVLDSDGSFFLYSKLTVDKSRWQQGNVFSCSVMHEALHNHYTQKSLSLSPG
light 2: DIVLTQSPATLSLSPGERATISCRASQSVSSYGQGFMHWYQQKPGQPPRLLIYGASSRATGIPARFSGSGSGTDFTLTISPLEPEDFAVYYCQQNKEDPWTFGGGTKLEIKRTVAAPSVFIFPPSDEQLKSGTASVVCLLNNFYPREAKVQWKVDNALQSGNSQESVTEQDSKDSTYSLSSTLTLSKADYEKHKVYACEVTHQGLSSPVTKSFNRGEC
notes: also called CD38VH1×CD28sup×CD3mid IgG1 NNAS
For B1, the binding result in experiment [1] is given as “binds”.

B2: CD38VH1×CD28sup×CD3mid IgG4 (other)
VH 1: QVQLVQSGAEVVKPGASVKVSCKASGYTFTSYAMHWVKEAPGQRLEWIGYIYPGQGGTNYNQKFQGRATLTADTSASTAYMELSSLRSEDTAVYFCARTGGLRRAYFTYWGQGTLVTVSS
VL 1: DIVLTQSPATLSLSPGERATISCRASQSVSSYGQGFMHWYQQKPGQPPRLLIYGASSRATGIPARFSGSGSGTDFTLTISPLEPEDFAVYYCQQNKEDPWTFGGGTKLEIK
VH 2: QVQLVQSGAEVVKPGASVKVSCKASGYTFTSYYIHWVRQAPGQGLEWIGSIYPGNVNTNYAQKFQGRATLTVDTSISTAYMELSRLRSDDTAVYYCTRSHYGLDWNFDVWGKGTTVTVSS
VL 2: DIQMTQSPSSLSASVGDRVTITCQASQNIYVWLNWYQQKPGKAPKLLIYKASNLHTGVPSRFSGSGSGTDFTLTISSLQPEDIATYYCQQGQTYPYTFGQGTKLEIK
VH 3: QVQLVESGGGVVQPGRSLRLSCAASGFTFTKAWMHWVRQAPGKQLEWVAQIKDKSNSYATYYADSVKGRFTISRDDSKNTLYLQMNSLRAEDTAVYYCRGVYYALSPFDYWGQGTLVTVSS
VL 3: DIVMTQTPLSLSVTPGQPASISCKSSQSLVHNNANTYLSWYLQKPGQSPQSLIYKVSNRFSGVPDRFSGSGSGTDFTLKISRVEAEDVGVYYCGQGTQYPFTFGSGTKVEIK
notes: also called anti-CD38(VH1)×CD28(sup)×CD3(mid)
For B2, the EC50 in [2] is 11 nM and 1.67 µg/mL; in experiment [3], 17 nM and 2.53 µg/mL. Further, the Kd was 11 nM in [4], 4 nM in [5] and 4 nM in experiment [6]. Moreover, in experiment [1], the “EC50 (read off the curve)” value was approximately 3 nM.

B3: anti-CD28sup antigen binding domain (antibody, V domains shown)
VH: QVQLVQSGAEVVKPGASVKVSCKASGYTFTSYYIHWVRQAPGQGLEWIGSIYPGNVNTNYAQKFQGRATLTVDTSISTAYMELSRLRSDDTAVYYCTRSHYGLDWNFDVWGKGTTVTVSS
VL: DIQMTQSPSSLSASVGDRVTITCQASQNIYVWLNWYQQKPGKAPKLLIYKASNLHTGVPSRFSGSGSGTDFTLTISSLQPEDIATYYCQQGQTYPYTFGQGTKLEIK
notes: also called super agonist, "sup"
B3: the binding result in [7] is reported as “binds”.

B4: mAb4 (antibody, human IgG1, kappa, V domains shown)
VH: QVQLVQSGAEVVKSGASVKVSCKASGYTFTSFNMHWVKEAPGQGLEWIGYIYPGNGGTNYNQKFQGRATLTADTSASTAYMEISSLRSEDTAVYFCARTGGLRRAYFTYWGQGTLVTVSS
VL: DIVLTQSPATLSLSPGERATISCRASESVDSYGNGFMHWYQQKPGQPPRLLIYLASSRATGIPARFSGSGSGTDFTLTISPLEPEDFAVYYCQQNKEDPWTFGGGTKLEIKR
notes: also called antiCD38_C2-CD38-1_VH5-VL3
For B4, the EC50 in experiment [8] was found to be 0.55 nM; in experiment [9] it was 0.17 nM; in [10], 1.15 nM; in [13], 0.16 nM. Besides, the Kd amounted to 0.822 nM in [11], 1.14 nM in experiment [12], 0.33 nM in experiment [14] and 1.15 nM in experiment [15]. Besides, the results for the off-rate constant (koff) in [11] and in experiment [12] were 0.000529 s⁻¹ and 0.000201 s⁻¹, respectively.

B5: anti-CD28cvn antigen binding domain (antibody, V domains shown)
VH: QVQLQESGPGLVKPSQTLSLTCTVSGFSLSDYGVHWVRQPPGKGLEWLGVIWAGGGTNYNPSLKSRKTISKDTSKNQVSLKLSSVTAADTAVYYCARDKGYSYYYSMDYWGQGTTVTVSS
VL: DIVLTQSPASLAVSPGQRATITCRASESVEYYVTSLMQWYQQKPGQPPKLLIFAASNVESGVPARFSGSGSGTDFTLTINPVEANDVANYYCQQSRKVPYTFGQGTKLEIK
notes: also called anti-CD28evn; conventional agonist, "cvn"
In the case of B5, the binding result in experiment [7] is recorded as “binds”.
